Consider one protein from ChEMBL document CHEMBL1155741, “Ellagitannins and hexahydroxydiphenoyl esters as inhibitors of vertebrate squalene epoxidase” (J Nat Prod, 2001).

Substrate in the series: CC(C)=CCC/C(C)=C/CC/C(C)=C/CC/C=C(\C)CC/C=C(\C)CCC=C(C)C
In words: Activity of C-terminal hexahistidine-tagged rat recombinant squalene epoxidase without N-terminal putative membrane domain expressed in Escherichia coli.

B1: Squalene monooxygenase (Rattus norvegicus), P52020 (protein)
chain: MWTFLGIATFTYFYKKCGDVTLANKELLLCVLVFLSLGLVLSYRCRHRNGGLLGRHQSGSQFAAFSDILSALPLIGFFWAKSPPESEKKEQLESKRRRKEVNLSETTLTGAATSVSTSSVTDPEVIIIGSGVLGSALATVLSRDGRTVTVIERDLKEPDRILGECLQPGGYRVLRELGLGDTVESLNAHHIHGYVIHDCESRSEVQIPYPVSENNQVQSGVAFHHGKFIMSLRKAAMAEPNVKFIEGVVLRLLEEDDAVIGVQYKDKETGDTKELHAPLTVVADGLFSKFRKNLISNKVSVSSHFVGFIMKDAPQFKANFAELVLVDPSPVLIYQISPSETRVLVDIRGELPRNLREYMTEQIYPQIPDHLKESFLEACQNARLRTMPASFLPPSSVNKRGVLLLGDAYNLRHPLTGGGMTVALKDIKIWRQLLKDIPDLYDDAAIFQAKKSFFWSRKRSHSFVVNVLAQALYELFSATDDSLRQLRKACFLYFKLGGECLTGPVGLLSILSPDPLLLIRHFFSVAVYATYFCFKSEPWATKPRALFSSGAILYKACSIIFPLIYSEMKYLVH
As for B1, the Michaelis constant (Km) (commonly the concentration of substrate that gives half-maximal velocity) turned out to be 3.8 µM and the kcat (in general, the maximal rate divided by the concentration of active sites) worked out at 0.0683 s⁻¹.
